Source: patent publication US20100136660A1 (published 2010)

T1: ovalbumin (UniProt P01012 2-386)
T1 sequence (looked up): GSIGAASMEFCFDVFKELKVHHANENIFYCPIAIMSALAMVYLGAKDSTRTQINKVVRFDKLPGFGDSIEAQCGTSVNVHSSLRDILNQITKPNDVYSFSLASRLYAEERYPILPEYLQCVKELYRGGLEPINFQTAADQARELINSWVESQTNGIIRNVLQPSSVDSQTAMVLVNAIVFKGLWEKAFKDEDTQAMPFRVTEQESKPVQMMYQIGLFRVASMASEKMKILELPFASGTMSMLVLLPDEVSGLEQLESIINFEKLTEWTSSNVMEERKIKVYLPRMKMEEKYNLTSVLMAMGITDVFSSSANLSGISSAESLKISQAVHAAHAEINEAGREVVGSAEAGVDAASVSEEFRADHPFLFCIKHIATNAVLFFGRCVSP

B1: human scFv VH14.1/VL14.1 (lysozyme binder from unimmunized library) (scFv, V domains shown)
VH: QVQLQESGPGLVKPSETLSLVCTVSGGSLSFSYWGWIRQPPGKGLEWIGYISHRGTDYNSSLQSRVTISADTSKNQFSLKLSSVTAADTAVYYCARSFSNSFFFGYWGQGT
VL: SSELTQDPAVSVAFGQTVRITCQGDSLRSSYASWYQQKPGQAPLLVIYGENSRPSGIPDRFSGSSSGNTASLTITGAQAEDEADYYCNSRDSRGTHLEVFGG
notes: scFv on phage from pHEN1
B2: human scFv VH3.5/VL3.5 (BSA binder from unimmunized library) (scFv, V domains shown)
VH: QVQLVQSGGGVVQPGRSLRLSCAASGFTFSSYGMHWVRQAPGKGLEWVAVISYDGSNKYYADSVKGRFTISRDNSKNTLYLQMNSLRAEDTAVYYCAKTGYSSGWGYFDYWGQGT
VL: SSELTQDPAVSVALGQTVRITCQGDSLRSYYASWYQQKPGQAPVLVIYGKNNRPSGIPDRFSGSSSGNTASLTITGAQAEDEADYYCNSRDSSGNHVVFGG
B3: human scFv VH13.1/VL13.1 (lysozyme binder from unimmunized library) (scFv, V domains shown)
VH: QVQLVQSGAEVKKPGQSLMISCQGSGYSFSNYWIGWVRQMPGKGLEWMGIIYPGDSDTRYSPSFQGQVTISADKSISTAYLHWSSLKASDTALYYCARLVGGTPAYWGQGT
VL: HVILTQPASVSGSPGQSITISCTGSSRDVGGYNYVSWYQHHPGKAPKLLISEVTNRPSGVSNRFSGSKSGNTASLTISGLQAEDEADYFCASYTSSKTYVFGG
notes: scFv on phage from pHEN1

Legend:
[1] = biological target: T2, bovine thyroglobulin (Sigma) (bovine, UniProt P01267 20-2769); test: phage ELISA
T2 construct: the same entry is used

ovalbumin = biological target: T1, ovalbumin; test: phage ELISA

T2 sequence (P01267 20-2769 limits assumed): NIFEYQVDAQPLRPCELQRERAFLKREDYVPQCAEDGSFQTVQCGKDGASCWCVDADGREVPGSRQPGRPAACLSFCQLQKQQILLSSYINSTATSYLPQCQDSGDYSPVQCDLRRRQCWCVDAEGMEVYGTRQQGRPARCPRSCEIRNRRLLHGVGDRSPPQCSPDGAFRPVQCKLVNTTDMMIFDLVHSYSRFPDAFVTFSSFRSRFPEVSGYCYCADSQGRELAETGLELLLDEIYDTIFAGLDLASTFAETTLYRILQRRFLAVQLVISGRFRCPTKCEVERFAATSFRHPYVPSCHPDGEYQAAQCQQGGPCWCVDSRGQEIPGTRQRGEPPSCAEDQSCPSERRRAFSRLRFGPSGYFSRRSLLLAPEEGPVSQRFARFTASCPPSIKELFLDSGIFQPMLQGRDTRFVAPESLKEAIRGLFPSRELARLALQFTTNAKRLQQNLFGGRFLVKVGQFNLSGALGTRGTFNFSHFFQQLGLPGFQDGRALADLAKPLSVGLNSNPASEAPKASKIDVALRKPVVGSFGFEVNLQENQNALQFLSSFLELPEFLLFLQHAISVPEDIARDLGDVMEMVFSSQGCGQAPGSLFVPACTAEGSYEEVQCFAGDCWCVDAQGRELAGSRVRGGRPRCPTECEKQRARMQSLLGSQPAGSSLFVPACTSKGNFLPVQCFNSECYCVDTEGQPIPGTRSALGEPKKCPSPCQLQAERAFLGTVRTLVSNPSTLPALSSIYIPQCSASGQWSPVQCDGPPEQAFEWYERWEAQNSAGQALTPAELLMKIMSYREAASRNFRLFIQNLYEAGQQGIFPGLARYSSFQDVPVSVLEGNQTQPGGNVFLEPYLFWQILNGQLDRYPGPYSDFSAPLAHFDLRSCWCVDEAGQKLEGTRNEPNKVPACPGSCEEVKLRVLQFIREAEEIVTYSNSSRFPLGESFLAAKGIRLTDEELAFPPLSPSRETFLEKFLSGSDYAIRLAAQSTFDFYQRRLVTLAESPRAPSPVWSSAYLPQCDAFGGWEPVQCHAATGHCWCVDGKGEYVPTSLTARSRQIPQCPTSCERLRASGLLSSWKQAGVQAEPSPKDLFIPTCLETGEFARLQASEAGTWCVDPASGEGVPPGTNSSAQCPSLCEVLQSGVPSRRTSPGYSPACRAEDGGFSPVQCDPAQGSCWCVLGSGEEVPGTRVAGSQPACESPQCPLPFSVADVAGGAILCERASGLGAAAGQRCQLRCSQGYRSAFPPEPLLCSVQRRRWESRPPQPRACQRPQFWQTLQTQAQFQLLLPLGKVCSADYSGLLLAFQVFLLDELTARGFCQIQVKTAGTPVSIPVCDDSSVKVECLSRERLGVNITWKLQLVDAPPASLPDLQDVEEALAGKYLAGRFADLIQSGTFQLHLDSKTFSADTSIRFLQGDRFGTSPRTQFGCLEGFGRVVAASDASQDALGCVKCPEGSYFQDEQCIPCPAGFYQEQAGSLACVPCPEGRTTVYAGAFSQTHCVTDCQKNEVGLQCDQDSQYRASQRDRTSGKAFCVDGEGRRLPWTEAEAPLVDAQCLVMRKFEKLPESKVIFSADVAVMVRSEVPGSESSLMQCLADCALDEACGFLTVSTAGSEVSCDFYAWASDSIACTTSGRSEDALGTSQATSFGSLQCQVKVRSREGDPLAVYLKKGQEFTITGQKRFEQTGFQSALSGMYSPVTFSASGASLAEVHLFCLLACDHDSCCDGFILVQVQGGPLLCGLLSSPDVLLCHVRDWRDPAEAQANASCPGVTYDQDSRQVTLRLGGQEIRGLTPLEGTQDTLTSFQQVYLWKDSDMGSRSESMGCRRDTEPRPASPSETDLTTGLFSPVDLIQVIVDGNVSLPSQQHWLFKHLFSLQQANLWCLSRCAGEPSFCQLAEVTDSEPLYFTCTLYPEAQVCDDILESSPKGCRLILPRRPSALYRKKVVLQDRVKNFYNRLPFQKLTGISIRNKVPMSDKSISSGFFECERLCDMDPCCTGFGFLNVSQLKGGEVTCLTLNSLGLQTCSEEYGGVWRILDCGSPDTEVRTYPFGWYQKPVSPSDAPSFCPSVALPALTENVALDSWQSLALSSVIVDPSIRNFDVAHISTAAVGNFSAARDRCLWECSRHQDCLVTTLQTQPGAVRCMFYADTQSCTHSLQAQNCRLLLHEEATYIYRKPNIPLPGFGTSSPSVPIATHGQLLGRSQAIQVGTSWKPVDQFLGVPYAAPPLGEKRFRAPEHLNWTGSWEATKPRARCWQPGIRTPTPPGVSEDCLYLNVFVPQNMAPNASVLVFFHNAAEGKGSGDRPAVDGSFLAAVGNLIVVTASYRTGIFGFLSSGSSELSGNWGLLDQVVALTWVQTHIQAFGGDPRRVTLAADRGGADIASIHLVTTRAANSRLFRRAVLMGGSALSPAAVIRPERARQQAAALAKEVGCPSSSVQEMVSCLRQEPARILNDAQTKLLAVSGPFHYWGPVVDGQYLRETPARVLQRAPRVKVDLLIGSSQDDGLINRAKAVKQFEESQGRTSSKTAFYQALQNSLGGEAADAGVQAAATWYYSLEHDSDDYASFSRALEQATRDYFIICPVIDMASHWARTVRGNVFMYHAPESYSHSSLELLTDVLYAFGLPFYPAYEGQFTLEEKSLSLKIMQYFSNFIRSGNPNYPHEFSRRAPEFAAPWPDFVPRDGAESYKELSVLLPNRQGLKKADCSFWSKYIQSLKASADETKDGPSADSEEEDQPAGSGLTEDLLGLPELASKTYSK

| Binder | binding result [1] | binding result (ovalbumin) |
| --- | --- | --- |
| B1 | no binding (tested: 100 ug/ml coating) | no binding (tested: 100 ug/ml coating) |
| B2 | no binding (tested: 100 ug/ml coating) | no binding (tested: 100 ug/ml coating) |
| B3 | no binding (tested: 100 ug/ml coating) | no binding (tested: 100 ug/ml coating) |
